± gives the uncertainty stated by the source.
assay: amyloid nucleation score (Sup35N fusion, yeast selection) (log enrichment); library NNK1; higher = more nucleation; inactive = no reads after selection
How it was run: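 The nucleation score is a DiMSum log enrichment of output over input reads, centred on the mode score of non-aggregating sequences. Sequences under 100 input reads were excluded, and reads came from Illumina sequencing of plasmid inserts. Psi-negative yeast expressing Sup35N fused to peptides of 20 random codons were induced with 100 μM copper sulfate for 24 hours and grown 7 days at 30°C on medium lacking adenine and uracil. Random libraries had three technical output replicates.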

Substance	amyloid nucleation score
YLVVPERLVANRMVS	-1.68 ± 2.4
YLYIRLPVITVRLDWLFGAK	0.464 ± 0.84
YLYVGS	-0.352 ± 0.37
YMEKWAWRVVNESCASVVPP	-0.272 ± 0.89
YMGMLA	2.34 ± 0.12
YMLMKGSVRYH	2.49 ± 0.2
YNDYACRYCFLVGTMD	7.615 ± 0.052
YNFVSCLVYRK	6.9 ± 0.071
YNIVPSADWVSWHGRLTGRR	1.42 ± 0.61
YNKCLCAVLSRMFTGWHISA	0.795 ± 0.88
YNPNGLTMGCGHKYTVEHTT	0.128 ± 0.47
YNSVLVTYYCKFSHTDSDSI	3.04 ± 0.18
YNTSGNTRS	-0.269 ± 0.64
YNVGLLGLFRCYAQKVGLWE	inactive
YNYSRYIRERFWFYT	0.115 ± 0.38
YPAVNRWSLAVFSVRVRLAG	-0.046 ± 0.38
YPGGILIRRVNIKLDGAAIV	-0.869 ± 0.68
YPLINTLDMHRLCRIYCVNE	-0.514 ± 0.54
YPLSLRYQCI	0.2 ± 0.25
YPWIFCFEILHYYQLVRLWG	-1.13 ± 0.55
YQDVIPNPVHRYTV	0.371 ± 0.31

Substance	amyloid nucleation score
YQLTQLGLLS	0.025 ± 0.49
YQVMLRSCLYLLYFSMFNCL	1.27 ± 0.79
YRFSGEGALLASKWLINNCT	-0.224 ± 0.4
YRGMGTTPKFT	0.356 ± 1
YRGYDKREYCSHFFTWDTYG	0.821 ± 0.72
YRNEESVSKSHGCHDMSWFA	0.505 ± 0.54
YRPNLLNSLTPTKTSIGSVY	1.11 ± 0.6
YRPWMRYLTLIGNYRHAGHS	0.633 ± 0.62
YRRDYGPKSVDWRPYVVEVR	0.359 ± 0.64
YRVNWFYMQRCAIP	-0.269 ± 0.86
YSAITNGSFQVLV	0.17 ± 0.21
YSAVISHDVGLFVYLTETET	-0.363 ± 0.56
YSCCRVFMCARWLRVTCNMS	0.189 ± 0.31
YSDWHI	-0.511 ± 0.91
YSEWRSSHNRFMSRPLSTPR	-0.992 ± 0.55
YSFLNYLLTRFDIIFLAAED	inactive
YSGHWPWMQ	-1.17 ± 0.74
YSITIRITEYNGVVSTGLHL	0.325 ± 0.6
YSNLSCSQTDVRSLR	0.494 ± 0.49
YSRSGRTTNLAPNLHLRTMS	0.136 ± 1.2
YSTRPKVPFVRKVFIIGL	0.174 ± 0.43

Substance	amyloid nucleation score
YSVLCIMRTLHAEIWFTGGI	-0.023 ± 1.4
YSYAGSLMAWSRKVHMHTEV	-0.19 ± 0.57
YTANYGILVFAVC	-0.702 ± 1.4
YTFLYSPTHCPRENHPNSVL	0.211 ± 0.61
YTGKRKT	-0.5 ± 0.46
YTHGG	inactive
YTRFN	-1.66 ± 1.6
YTRFVKGYTRNRFSRDTSAV	-0.084 ± 0.28
YTRRVTNDVNNFGTFTRMSS	1.02 ± 0.27
YTSDKGKLYCGLMMG	-0.045 ± 0.59
YTYDLYVTSVLNVSRESSHC	-0.343 ± 1.4
YVAFEKTL	inactive
YVDLFIMPIACGTSVMHLNL	5.464 ± 0.047
YVEPSF	-0.083 ± 0.97
YVEQYLWDSDWSSGI	0.974 ± 0.14
YVFRPLVERDRSLMKLVQQL	inactive
YVGADMELHSRMVTDTYFAS	-0.707 ± 1.1
YVGRNLWK	0.402 ± 0.47
YVIEIMISHVPAIWRGYTCS	0.554 ± 0.71
YVLKCKNILMYEYLNEVKIS	0.219 ± 0.27
YVLYCICV	5.95 ± 0.073

Substance	amyloid nucleation score
YVMAVI	1.64 ± 0.5
YVMSS	-0.369 ± 0.41
YVQLI	-0.256 ± 0.39
YVSAGWVYRSYFGIIFILRN	-0.873 ± 1.1
YVSEEMNGLVMYQSNWGSVT	0.224 ± 0.54
YVSYDQTNSAAYYVRVRLRF	0.947 ± 0.73
YVVCRTFSVPAYSLRLQLRR	0.353 ± 0.26
YVYDSVAVHGGKTLEGEGYG	0.035 ± 0.38
YVYSYLGGARGCVFKEKDPP	0.586 ± 0.47
YWCMLARSLDDEGLFWRTGG	-0.38 ± 0.33
YWGPKDAMGMSFIVSWDGPP	0.367 ± 0.31
YWSFGGWVAQRVCMESVFVK	-2.27 ± 1.6
YWVWYDVYGSWLGSWYYKRG	0.278 ± 0.52
YWVYSSRGCA	inactive
YWWRWSVSI	0.386 ± 0.33
YYAHSGMWYAMSDQKGAVG	0.552 ± 0.67
YYCTQRLNSHSVLMSLADRW	0.035 ± 0.76
YYDFGIIRSCVFSNGCVGMY	1.62 ± 0.8
YYDTEGIHHSSIQRCQIRAG	1.16 ± 0.58
YYQRGVDYNIVFLRT	1.16 ± 0.52
YYVMRYDASLYDKRKERVFG	0.851 ± 0.39
